From publication PMC4226571, “The E6AP Binding Pocket of the HPV16 E6 Oncoprotein Provides a Docking Site for a Small Inhibitory Peptide Unrelated to E6AP, Indicating Druggability of E6” (PLoS ONE, 2014) come the findings set out here.

Experiment in all cases: mammalian two-hybrid
What all share (conditions): HeLa cells; read off a plot

For assay [1], the target named is E6APpep fused to the GAL4 DNA binding domain.
In assay [2] the target is pep11** fused to the GAL4 DNA binding domain.
Assay [3] addresses E6APpep fused to the GAL4 DNA binding domain. This is another data set of the same source.
Assay [4] has as its target pep11** fused to the GAL4 DNA binding domain. This is another data set of the same source.

For “wildtype HPV16 E6 fused to the VP16 transcriptional activation domain (from UniProt P03126) C140E”, the percent of parent in assay [1] worked out at 140%; in assay [2], 150%.
In the same order, the values of “wildtype HPV16 E6 fused to the VP16 transcriptional activation domain (from UniProt P03126) Q35R” are 120% and 100%.
In the same order, the values of “wildtype HPV16 E6 fused to the VP16 transcriptional activation domain (from UniProt P03126) R40A” are 110% and 120%.
On to “wildtype HPV16 E6 fused to the VP16 transcriptional activation domain (from UniProt P03126) C51F”, for which the percent of parent in assay [1] and in assay [2] was 110% each time.
Consider “wildtype HPV16 E6 fused to the VP16 transcriptional activation domain (from UniProt P03126) I128A”, for which the percent of parent in assay [1] turned out to be 52%; in assay [2], 17%.
In the case of “wildtype HPV16 E6 fused to the VP16 transcriptional activation domain (from UniProt P03126) L100A”, the percent of parent in assay [1] and in assay [2] was 130% in each case.
“wildtype HPV16 E6 fused to the VP16 transcriptional activation domain (from UniProt P03126) R48A”: the percent of parent is 98% in assay [1] and 110% in assay [2].
For “wildtype HPV16 E6 fused to the VP16 transcriptional activation domain (from UniProt P03126) L119E”, in that order: 88% and 100%.
For “wildtype HPV16 E6 fused to the VP16 transcriptional activation domain (from UniProt P03126) D44R”, the percent of parent in assay [1] came to 67%; in assay [2], 45%.
In the same order, the values of “wildtype HPV16 E6 fused to the VP16 transcriptional activation domain (from UniProt P03126) D120A” are 120% and 100%.
In the same order, the values of “wildtype HPV16 E6 fused to the VP16 transcriptional activation domain (from UniProt P03126) K122A” are 110% and 170%.
In the case of “wildtype HPV16 E6 fused to the VP16 transcriptional activation domain (from UniProt P03126) R129E”, the percent of parent in assay [1] is 110%; in assay [2] it was 120%.
Take “wildtype HPV16 E6 fused to the VP16 transcriptional activation domain (from UniProt P03126) D64H”: the percent of parent amounted to 64% in assay [1] and 57% in assay [2].
In the same order, the values of “wildtype HPV16 E6 fused to the VP16 transcriptional activation domain (from UniProt P03126) R129A” are 290% and 190%.
For “wildtype HPV16 E6 fused to the VP16 transcriptional activation domain (from UniProt P03126) R102E”, in that order: 43% and 10%.
For “wildtype HPV16 E6 fused to the VP16 transcriptional activation domain (from UniProt P03126) H24R”, in that order: 79% and 57%.
Turning to “wildtype HPV16 E6 fused to the VP16 transcriptional activation domain (from UniProt P03126) L38E”, the percent of parent in assay [1] is 170%; in assay [2], 140%.
For “wildtype HPV16 E6 fused to the VP16 transcriptional activation domain (from UniProt P03126) D120K”, in that order: 100% and 91%.
For “wildtype HPV16 E6 fused to the VP16 transcriptional activation domain (from UniProt P03126) S74R”, in that order: 70% and 64%.
In the same order, the values of “wildtype HPV16 E6 fused to the VP16 transcriptional activation domain (from UniProt P03126) D64A” are 64% and 60%.
Regarding “wildtype HPV16 E6 fused to the VP16 transcriptional activation domain (from UniProt P03126) N105A”, the percent of parent in assay [1] is 80%; in assay [2] it was 110%.
In the same order, the values of “wildtype HPV16 E6 fused to the VP16 transcriptional activation domain (from UniProt P03126) K34E” are 74% and 120%.
For “wildtype HPV16 E6 fused to the VP16 transcriptional activation domain (from UniProt P03126) R39A”, in that order: 78% and 89%.
In the same order, the values of “wildtype HPV16 E6 fused to the VP16 transcriptional activation domain (from UniProt P03126) Q107A” are 79% and 100%.
“wildtype HPV16 E6 fused to the VP16 transcriptional activation domain (from UniProt P03126) Q35A”: the percent of parent in assay [1] was found to be 110%; in assay [2] it was 100%.
On to “wildtype HPV16 E6 fused to the VP16 transcriptional activation domain (from UniProt P03126) Y70A”, for which the percent of parent in assay [1] is 99%; in assay [2], 57%; in assay [3], 99%; in assay [4], 57%.
On to “wildtype HPV16 E6 fused to the VP16 transcriptional activation domain (from UniProt P03126) Y32A”, for which the percent of parent amounted to 53% in assay [1] and 7% in assay [2].
In the same order, the values of “wildtype HPV16 E6 fused to the VP16 transcriptional activation domain (from UniProt P03126) H126A” are 80% and 110%.
For “wildtype HPV16 E6 fused to the VP16 transcriptional activation domain (from UniProt P03126) L50E”, in that order: 42% and 5%.
With “wildtype HPV16 E6 fused to the VP16 transcriptional activation domain (from UniProt P03126) R55A”, the percent of parent in assay [1] was determined as 64%; in assay [2], 130%; in assay [3] it was 64%; in assay [4] it was 130%.
For “wildtype HPV16 E6 fused to the VP16 transcriptional activation domain (from UniProt P03126) V53E”, the percent of parent turned out to be 45% in assay [1] and 7% in assay [2].
Regarding “wildtype HPV16 E6 fused to the VP16 transcriptional activation domain (from UniProt P03126) I128E”, the percent of parent in assay [1] amounted to 48%; in assay [2] it was 10%.
In the case of “wildtype HPV16 E6 fused to the VP16 transcriptional activation domain (from UniProt P03126) K121A”, the percent of parent in assay [1] worked out at 120%; in assay [2], 170%.
In the same order, the values of “wildtype HPV16 E6 fused to the VP16 transcriptional activation domain (from UniProt P03126) V62A” are 63% and 61%.
In the same order, the values of “wildtype HPV16 E6 fused to the VP16 transcriptional activation domain (from UniProt P03126) R131E” are 41% and 49%.
In the same order, the values of “wildtype HPV16 E6 fused to the VP16 transcriptional activation domain (from UniProt P03126) H126E” are 63% and 98%.
Consider “wildtype HPV16 E6 fused to the VP16 transcriptional activation domain (from UniProt P03126) H24Q”, for which the figures for the percent of parent in assay [1] and in assay [2] were 87% and 74%, respectively.
For “wildtype HPV16 E6 fused to the VP16 transcriptional activation domain (from UniProt P03126) K108A”, in that order: 93% and 140%.
On to “wildtype HPV16 E6 fused to the VP16 transcriptional activation domain (from UniProt P03126) T133A”, for which the percent of parent was 150% in assay [1] and 130% in assay [2].
For “wildtype HPV16 E6 fused to the VP16 transcriptional activation domain (from UniProt P03126) L67A”, in that order: 48% and 46%.
In the same order, the values of “wildtype HPV16 E6 fused to the VP16 transcriptional activation domain (from UniProt P03126) I23Q” are 66% and 70%.
